Values quoted from earlier work, collected in paper PMC6006191.

Target: GLRX3 (Homo sapiens) (UniProt O76003)
Assay: NMR

Sequence of UniProt O76003 (O76003 2-335): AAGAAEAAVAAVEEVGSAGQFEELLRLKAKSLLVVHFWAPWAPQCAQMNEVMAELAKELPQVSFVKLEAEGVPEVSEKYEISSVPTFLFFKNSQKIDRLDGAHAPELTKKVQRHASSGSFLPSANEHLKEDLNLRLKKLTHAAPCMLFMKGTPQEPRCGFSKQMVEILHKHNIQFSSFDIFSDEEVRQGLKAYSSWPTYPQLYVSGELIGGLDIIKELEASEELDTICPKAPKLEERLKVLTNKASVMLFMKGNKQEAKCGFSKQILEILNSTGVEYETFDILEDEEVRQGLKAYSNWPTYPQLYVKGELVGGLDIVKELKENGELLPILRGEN

## BOLA2 (apo) (from UniProt Q9H3K6)
  Kd: 25 µM
